Square brackets hold non-standard residues; d marks the D form. Ends that are not written are not given here. Cit = NC(=O)NCCC[C@H](N)C(=O)O
Tests used:
Experiment in all cases: in vitro binding assay to recombinant MHC class II protein
[1] = molecular target: MHC class II of the HLA DRB1 0404 genotype (Homo sapiens, UniProt P01903+P01911, A100R/A169T/F76Y/I96L/K127E/L162R/M171V/N62H/P40V/Q125Y/R42H/S133A/S149N/S66Y/V209L/W38E); set-up: key: *0101: the listing of the allele in the column for the allele indicates binding; *0401: “0401” in the “Binds to 0401” column indicates binding of the peptide to MHC class II of the HLA DRB1 0401 genotype; *0404: the listing of the allele in the column for the allele indicates binding; *0405: the listing of the allele in the column for the allele indicates binding; *0408: the listing of the allele in the column for the allele indicates binding; *1001: the listing of the allele in the column for the allele indicates binding; “no” or no data indicates no binding to a protein of that genotype
From the text: (§1) Binding of the peptides to recombinant MHC class II protein of various alleles has been confirmed in an in vitro binding assay and the results are shown in Tables 1, 2 and 3. In table 1, 2 and 3, the listing of the allele in the column for the allele indicates binding. Thus “0401” in the “Binds to 0401” column indicates binding of the peptide to MHC class II of the HLA DRB1 0401 genotype. “no” or no data indicates no binding to a protein of that genotype. Empty boxes indicate no binding or that binding has not been determined. In the tables it is also indicated if the peptide has a citrulline residue, where “yes” indicates the presence of a citrulline residue and “no” indicates the absence of a citrulline residue.

[2] = molecular target: MHC class II of the HLA DRB1 0401 genotype (Homo sapiens, UniProt P01903+P01911, A100K/A169T/F76Y/I96L/K127E/L162R/M171V/N62H/P40V/Q125Y/R42H/S133A/S149N/S66Y/V115G/V209L/W38E); set-up: key to Binds to 0401: *0101: the listing of the allele in the column for the allele indicates binding; *0401: “0401” in the “Binds to 0401” column indicates binding of the peptide to MHC class II of the HLA DRB1 0401 genotype; *0404: the listing of the allele in the column for the allele indicates binding; *0405: the listing of the allele in the column for the allele indicates binding; *0408: the listing of the allele in the column for the allele indicates binding; *1001: the listing of the allele in the column for the allele indicates binding; “no” or no data indicates no binding to a protein of that genotype; conditions: recombinant MHC class II, HLA DRB1 0401
From the text: as §1
Thus for these peptides no binding to HLA-DR0401 was observed when citrulline was exchanged with the original amino acid arginine (Table 4). No binding of the citrullinated peptides was seen to HLA-DR 03 or 02 variants.

[3] = molecular target: MHC class II of the HLA DRB1 0405 genotype (Homo sapiens, UniProt P01903+P01911, A100R/A169T/D86S/F76Y/I96L/K127E/L162R/M171V/N62H/P40V/Q125Y/R42H/S133A/S149N/S66Y/V115G/V209L/W38E); set-up: key: *0101: the listing of the allele in the column for the allele indicates binding; *0401: “0401” in the “Binds to 0401” column indicates binding of the peptide to MHC class II of the HLA DRB1 0401 genotype; *0404: the listing of the allele in the column for the allele indicates binding; *0405: the listing of the allele in the column for the allele indicates binding; *0408: the listing of the allele in the column for the allele indicates binding; *1001: the listing of the allele in the column for the allele indicates binding; “no” or no data indicates no binding to a protein of that genotype
From the text: as §1

[4] = molecular target: MHC class II of the HLA DRB1 0101 genotype (Homo sapiens, UniProt P01903+P01911, A100R/D57E/F55L/F60I/F76Y/I96L/L162R/M171V/P40L/Q125E/R42F/V115G/Y59C); set-up: key: *0101: the listing of the allele in the column for the allele indicates binding; *0401: “0401” in the “Binds to 0401” column indicates binding of the peptide to MHC class II of the HLA DRB1 0401 genotype; *0404: the listing of the allele in the column for the allele indicates binding; *0405: the listing of the allele in the column for the allele indicates binding; *0408: the listing of the allele in the column for the allele indicates binding; *1001: the listing of the allele in the column for the allele indicates binding; “no” or no data indicates no binding to a protein of that genotype
From the text: as §1

type II collagen 166: human collagen type II peptide, not citrullinated (VMGFPGPKGANGEPG; listed as Homo sapiens)
Binds to 0404 [1]: *0404

type II collagen 332: citrullinated human collagen type II peptide ([Cit]GPPGPQGA[Cit]GFPGT; listed as Homo sapiens)
Binds to 0401 [2]: *0401 | Binds to 0404 [1]: *0404 | Binds to 0405 [3]: *0405

vimentin 79: human vimentin peptide, not citrullinated (MALDIEIATYRKLLE; listed as Homo sapiens)
Binds to 0401 [2]: no | Binds to 0404 [1]: *0404 | Binds to 0101 [4]: *0101

vimentin 145: citrullinated human vimentin peptide (STEY[Cit][Cit]QVQSLTCEV; listed as Homo sapiens)
Binds to 0401 [2]: *0401

vimentin 159: citrullinated human vimentin peptide (XKLLEGEESXISLPL; citrullinated; MOD_RES (1)..(1) Citrulline; MOD_RES (10)..(10) Citrulline; listed as Homo sapiens)
Binds to 0401 [2]: *0401 | Binds to 0404 [1]: No

vimentin 71: human vimentin peptide, not citrullinated (FAVEAANYQDTIGRL; listed as Homo sapiens)
Binds to 0401 [2]: *0401

type II collagen 138: human collagen type II peptide, not citrullinated (AGFKGEQGPKGEPGP; listed as Homo sapiens)
Binds to 0401 [2]: *0401 | Binds to 0101 [4]: *0101

type II collagen 411: citrullinated human collagen type II peptide (GIVGLPGQ[Cit]GE[Cit]GFP; listed as Homo sapiens)
Binds to 0401 [2]: *0401 | Binds to 0404 [1]: *0404 | Binds to 0405 [3]: *0405

type II collagen 257: human collagen type II peptide, not citrullinated (GDRGETGAVGAPGAP; listed as Homo sapiens)
Binds to 0404 [1]: *0404

vimentin 16: human vimentin peptide, not citrullinated (GVRLLQDSVDFSLAD; listed as Homo sapiens)
Binds to 0401 [2]: *0401 | Binds to 0101 [4]: no

vimentin 42: human vimentin peptide, not citrullinated (FRQDVDNASLARLDL; listed as Homo sapiens)
Binds to 0401 [2]: *0401 | Binds to 0404 [1]: no | Binds to 0101 [4]: *0101

vimentin 95: citrullinated human vimentin peptide (Y[Cit][Cit]MFGGPGTAS[Cit]PS; listed as Homo sapiens)
Binds to 0401 [2]: *0401 | Binds to 0101 [4]: *0101

vimentin 98: citrullinated human vimentin peptide (SS[Cit]SYVTTST[Cit]TYSL; listed as Homo sapiens)
Binds to 0401 [2]: *0401 | Binds to 0405 [3]: *0405

vimentin 27: human vimentin peptide, not citrullinated (LLAELEQLKGQGKSR; listed as Homo sapiens)
Binds to 0404 [1]: no | Binds to 0101 [4]: *0101

type II collagen 195: human collagen type II peptide, not citrullinated (PGLQGMPGERGAAGI; listed as Homo sapiens)
Binds to 0401 [2]: *0401 | Binds to 0404 [1]: *0404

vimentin 55: human vimentin peptide, not citrullinated (DVRQQYESVAAKNLQ; listed as Homo sapiens)
Binds to 0401 [2]: *0401 | Binds to 0101 [4]: *0101

type II collagen 100: human collagen type II peptide, not citrullinated (PQGARGFPGTPGLPG; listed as Homo sapiens)
Binds to 0404 [1]: *0404

vimentin 14: human vimentin peptide, not citrullinated (SAVRLRSSVPGVRLL; listed as Homo sapiens)
Binds to 0404 [1]: *0404

vimentin 44: human vimentin peptide, not citrullinated (ARLDLERKVESLQEE; listed as Homo sapiens)
Binds to 0404 [1]: *0404

vimentin 13: human vimentin peptide, not citrullinated (YATRSSAVRLRSSVP; listed as Homo sapiens)
Binds to 0401 [2]: no | Binds to 0101 [4]: *0101

vimentin 150: citrullinated human vimentin peptide (FAVEAANYQDTIG[Cit]L; listed as Homo sapiens)
Binds to 0401 [2]: *0401

type II collagen 178: human collagen type II peptide, not citrullinated (PSGFQGLPGPPGPPG; listed as Homo sapiens)
Binds to 0405 [3]: *0405

vimentin 20: human vimentin peptide, not citrullinated (FKNTRTNEKVELQEL; listed as Homo sapiens)
Binds to 0401 [2]: *0401

vimentin 32: human vimentin peptide, not citrullinated (ELRRQVDQLTNDKAR; listed as Homo sapiens)
Binds to 0404 [1]: *0404 | Binds to 0101 [4]: *0101

vimentin 59: human vimentin peptide, not citrullinated (YKSKFADLSEAANRN; listed as Homo sapiens)
Binds to 0401 [2]: *0401

vimentin 132: citrullinated human vimentin peptide (F[Cit]QDVDNASLA[Cit]LDL; listed as Homo sapiens)
Binds to 0101 [4]: *0101

type II collagen 137: human collagen type II peptide, not citrullinated (GEPGIAGFKGEQGPK; listed as Homo sapiens)
Binds to 0401 [2]: *0401 | Binds to 0404 [1]: *0404 | Binds to 0101 [4]: *0101

type II collagen 272: human collagen type II peptide, not citrullinated (GHRGFTGLQGLPGPP; listed as Homo sapiens)
Binds to 0405 [3]: *0405

vimentin 92: human vimentin peptide, not citrullinated (GQVINETSQHHDDLE; listed as Homo sapiens)
Binds to 0404 [1]: *0404

vimentin 99: citrullinated human vimentin peptide (VTTST[Cit]TYSLGSAL[Cit]; listed as Homo sapiens)
Binds to 0401 [2]: *0401 | Binds to 0101 [4]: *0101

vimentin 156: citrullinated human vimentin peptide (XEYQDLLNVKMALDI; citrullinated; MOD_RES (1)..(1) Citrulline; listed as Homo sapiens)
Binds to 0101 [4]: *0101

type II collagen 224: human collagen type II peptide, not citrullinated (GPPGATGFPGAAGRV; listed as Homo sapiens)
Binds to 0404 [1]: *0404

vimentin 93: citrullinated human vimentin peptide (MST[Cit]SVSSSSY[Cit][Cit]MF; listed as Homo sapiens)
Binds to 0401 [2]: *0401 | Binds to 0404 [1]: *0404 | Binds to 0101 [4]: no

From US10774129B2, “Complexes of types of MHC class II that bind to collagen type II peptides and their use on diagnosis and treatment” (FRAUNHOFER-GESELLSCHAFT ZUR FÖRDERUNG DER ANGEWANDTEN …, priority 2011, dated 2020)
